From publication PMC9352680, “A comprehensive thermodynamic model for RNA binding by the Saccharomyces cerevisiae Pumilio protein PUF4”
Residue numbers refer to the chain shown, from its start. Numbers in names are those of the source.

T1: PUF4 RNA-binding domain (Saccharomyces cerevisiae, UniProt P25339 537-888)
T1 sequence: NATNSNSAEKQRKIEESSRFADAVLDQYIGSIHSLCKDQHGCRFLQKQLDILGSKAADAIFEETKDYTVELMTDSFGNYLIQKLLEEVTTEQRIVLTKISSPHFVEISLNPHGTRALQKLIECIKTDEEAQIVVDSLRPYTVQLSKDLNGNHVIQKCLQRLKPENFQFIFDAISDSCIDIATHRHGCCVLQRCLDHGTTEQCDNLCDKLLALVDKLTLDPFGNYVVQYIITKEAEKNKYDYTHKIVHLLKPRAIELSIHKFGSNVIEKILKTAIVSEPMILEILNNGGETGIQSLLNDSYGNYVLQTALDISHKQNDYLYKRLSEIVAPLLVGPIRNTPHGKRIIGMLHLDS

B1: Ic_S4_P4E.1_K4.1_C4.1_H4.1_A4.1_[T5A]_[A6C]_[T7C]_F4.1_[T8G]_[A9C]_T4.1 (ssRNA)
RNA: UUUGACAACUGAUCGUUCUUUCUUGUAACCGCUUCUUUCUCGAUCAGUUGUCUUU
B2: Ic_S4_P4E.1_K4.1_C4.1_H4.1_A4.1_[T5A]_[A6C]_[T7A]_F4.1_[T8G]_[A9T]_T4.1 (ssRNA)
RNA: B1 RNA with C30A, C32U
B3: Ic_S4_P4E.1_K4.1_C4.1_H4.1_A4.1_[T5A]_[A6T]_F4.1_[T8G]_[A9C]_T4.1 (ssRNA)
RNA: B1 RNA with C29U, C30U
B4: Ic_S4_P4E.1_K4.1_C4.1_H4.1_A4.1_[T5A]_[A6C]_[T7A]_F4.1_[T8A]_[A9C]_T4.1 (ssRNA)
RNA: B1 RNA with C30A, G31A
B5: Ic_S4_P4E.1_K4.1_C4.1_H4.1_A4.1_[T5A]_[A6C]_F4.1_[T8C]_T4.1 (ssRNA)
RNA: B1 RNA with C30U, G31C, C32A
B6: Ic_S4_P4E.1_K4.1_C4.1_H4.1_A4.1_[T5A]_[A6T]_F4.1_[A9C]_T4.1 (ssRNA)
RNA: B1 RNA with C29U, C30U, G31U
B7: Ic_S4_P4E.1_K4.1_C4.1_H4.1_A4.1_[T5A]_[A6C]_F4.1_[T8C]_[A9G]_T4.1 (ssRNA)
RNA: B1 RNA with C30U, G31C, C32G
B8: Ic_S4_P4E.1_K4.1_C4.1_H4.1_A4.1_[T5A]_[A6C]_F4.1_[A9G]_T4.1 (ssRNA)
RNA: B1 RNA with C30U, G31U, C32G
B9: Ic_S4_P4E.1_K4.1_C4.1_H4.1_A4.1_[T5A]_[A6T]_[T7A]_F4.1_T4.1 (ssRNA)
RNA: B1 RNA with C29U, C30A, G31U, C32A
B10: Ic_S4_P4E.1_K4.1_C4.1_H4.1_A4.1_[T5A]_[A6C]_F4.1_[T8G]_[A9T]_T4.1 (ssRNA)
RNA: B1 RNA with C30U, C32U
B11: Ic_S4_P4E.1_K4.1_C4.1_H4.1_A4.1_[T5A]_[A6T]_[T7A]_F4.1_[T8C]_[A9T]_T4.1 (ssRNA)
RNA: B1 RNA with C29U, C30A, G31C, C32U
B12: Ic_S4_P4E.1_K4.1_C4.1_H4.1_A4.1_[T5A]_[A6T]_F4.1_[T8C]_T4.1 (ssRNA)
RNA: B1 RNA with C29U, C30U, G31C, C32A
B13: Ic_S4_P4E.1_K4.1_C4.1_H4.1_A4.1_[T5A]_[A6C]_F4.1_T4.1 (ssRNA)
RNA: B1 RNA with C30U, G31U, C32A
B14: Ic_S4_P4E.1_K4.1_C4.1_H4.1_A4.1_[T5A]_[A6C]_[T7A]_F4.1_[T8G]_[A9C]_T4.1 (ssRNA)
RNA: B1 RNA with C30A
B15: Ic_S4_P4E.1_K4.1_C4.1_H4.1_A4.1_[T5A]_[A6C]_[T7C]_F4.1_T4.1 (ssRNA)
RNA: B1 RNA with G31U, C32A
B16: Ic_S4_P4E.1_K4.1_C4.1_H4.1_A4.1_[T5A]_[A6T]_[T7A]_F4.1_[T8A]_T4.1 (ssRNA)
RNA: B1 RNA with C29U, C30A, G31A, C32A
B17: Ic_S4_P4E.1_K4.1_C4.1_H4.1_A4.1_[T5A]_[A6C]_[T7A]_F4.1_T4.1 (ssRNA)
RNA: B1 RNA with C30A, G31U, C32A
B18: Ic_S4_P4E.1_K4.1_C4.1_H4.1_A4.1_[T5A]_[A6C]_[T7C]_F4.1_[A9T]_T4.1 (ssRNA)
RNA: B1 RNA with G31U, C32U
B19: Ic_S4_P4E.1_K4.1_C4.1_H4.1_A4.1_[T5A]_[A6C]_F4.1_[T8A]_[A9G]_T4.1 (ssRNA)
RNA: B1 RNA with C30U, G31A, C32G
B20: Ic_S4_P4E.1_K4.1_C4.1_H4.1_A4.1_[T5A]_[A6T]_[T7A]_F4.1_[T8A]_[A9C]_T4.1 (ssRNA)
RNA: B1 RNA with C29U, C30A, G31A
B21: Ic_S4_P4E.1_K4.1_C4.1_H4.1_A4.1_[T5A]_[A6C]_F4.1_[T8A]_[A9T]_T4.1 (ssRNA)
RNA: B1 RNA with C30U, G31A, C32U
B22: Ic_S4_P4E.1_K4.1_C4.1_H4.1_A4.1_[T5A]_[A6T]_[T7A]_F4.1_[A9C]_T4.1 (ssRNA)
RNA: B1 RNA with C29U, C30A, G31U
B23: Ic_S4_P4E.1_K4.1_C4.1_H4.1_A4.1_[T5A]_[A6C]_[T7A]_F4.1_[A9C]_T4.1 (ssRNA)
RNA: B1 RNA with C30A, G31U
B24: Ic_S4_P4E.1_K4.1_C4.1_H4.1_A4.1_[T5A]_[A6C]_[T7C]_F4.1_[T8C]_[A9T]_T4.1 (ssRNA)
RNA: B1 RNA with G31C, C32U
B25: Ic_S4_P4E.1_K4.1_C4.1_H4.1_A4.1_[T5A]_[A6T]_F4.1_[T8A]_[A9G]_T4.1 (ssRNA)
RNA: B1 RNA with C29U, C30U, G31A, C32G
B26: Ic_S4_P4E.1_K4.1_C4.1_H4.1_A4.1_[T5A]_[A6T]_[T7C]_F4.1_[T8A]_[A9G]_T4.1 (ssRNA)
RNA: B1 RNA with C29U, G31A, C32G
B27: Ic_S4_P4E.1_K4.1_C4.1_H4.1_A4.1_[T5A]_[T7C]_F4.1_[T8C]_[A9T]_T4.1 (ssRNA)
RNA: B1 RNA with C29A, G31C, C32U
B28: Ic_S4_P4E.1_K4.1_C4.1_H4.1_A4.1_[T5A]_[A6T]_F4.1_T4.1 (ssRNA)
RNA: B1 RNA with C29U, C30U, G31U, C32A
B29: Ic_S4_P4E.1_K4.1_C4.1_H4.1_A4.1_[T5A]_[A6C]_[T7A]_F4.1_[T8C]_[A9C]_T4.1 (ssRNA)
RNA: B1 RNA with C30A, G31C
B30: Ic_S4_P4E.1_K4.1_C4.1_H4.1_A4.1_[T5A]_[T7C]_F4.1_[T8A]_[A9T]_T4.1 (ssRNA)
RNA: B1 RNA with C29A, G31A, C32U
B31: Ic_S4_P4E.1_K4.1_C4.1_H4.1_A4.1_[T5A]_[A6T]_F4.1_[T8A]_[A9T]_T4.1 (ssRNA)
RNA: B1 RNA with C29U, C30U, G31A, C32U
B32: Ic_S4_P4E.1_K4.1_C4.1_H4.1_A4.1_[T5A]_[A6T]_[T7C]_F4.1_[T8A]_[A9C]_T4.1 (ssRNA)
RNA: B1 RNA with C29U, G31A
B33: Ic_S4_P4E.1_K4.1_C4.1_H4.1_A4.1_[T5A]_[T7C]_F4.1_[A9C]_T4.1 (ssRNA)
RNA: B1 RNA with C29A, G31U
B34: Ic_S4_P4E.1_K4.1_C4.1_H4.1_A4.1_[T5A]_[A6T]_[T7A]_F4.1_[A9G]_T4.1 (ssRNA)
RNA: B1 RNA with C29U, C30A, G31U, C32G
B35: Ic_S4_P4E.1_K4.1_C4.1_H4.1_A4.1_[T5A]_[A6C]_F4.1_[T8A]_[A9C]_T4.1 (ssRNA)
RNA: B1 RNA with C30U, G31A
B36: Ic_S4_P4E.1_K4.1_C4.1_H4.1_A4.1_[T5A]_[A6C]_[T7C]_F4.1_[A9G]_T4.1 (ssRNA)
RNA: B1 RNA with G31U, C32G
B37: Ic_S4_P4E.1_K4.1_C4.1_H4.1_A4.1_[T5A]_[T7C]_F4.1_[T8C]_[A9C]_T4.1 (ssRNA)
RNA: B1 RNA with C29A, G31C
B38: Ic_S4_P4E.1_K4.1_C4.1_H4.1_A4.1_[T5A]_[A6T]_[T7A]_F4.1_[T8C]_T4.1 (ssRNA)
RNA: B1 RNA with C29U, C30A, G31C, C32A
B39: Ic_S4_P4E.1_K4.1_C4.1_H4.1_A4.1_[T5A]_[A6T]_[T7C]_F4.1_[A9G]_T4.1 (ssRNA)
RNA: B1 RNA with C29U, G31U, C32G
B40: Ic_S4_P4E.1_K4.1_C4.1_H4.1_A4.1_[T5A]_[A6T]_[T7C]_F4.1_[T8C]_T4.1 (ssRNA)
RNA: B1 RNA with C29U, G31C, C32A
B41: Ic_S4_P4E.1_K4.1_C4.1_H4.1_A4.1_[T5A]_[A6C]_F4.1_[T8C]_[A9T]_T4.1 (ssRNA)
RNA: B1 RNA with C30U, G31C, C32U
B42: Ic_S4_P4E.1_K4.1_C4.1_H4.1_A4.1_[T5A]_[T7C]_F4.1_[T8C]_[A9G]_T4.1 (ssRNA)
RNA: B1 RNA with C29A, G31C, C32G
B43: Ic_S4_P4E.1_K4.1_C4.1_H4.1_A4.1_[T5A]_[A6T]_[T7G]_F4.1_[T8C]_[A9C]_T4.1 (ssRNA)
RNA: B1 RNA with C29U, C30G, G31C
B44: Ic_S4_P4E.1_K4.1_C4.1_H4.1_A4.1_[T5A]_[A6T]_[T7C]_F4.1_[T8G]_[A9G]_T4.1 (ssRNA)
RNA: B1 RNA with C29U, C32G
B45: Ic_S4_P4E.1_K4.1_C4.1_H4.1_A4.1_[T5A]_[A6T]_[T7C]_F4.1_[A9T]_T4.1 (ssRNA)
RNA: B1 RNA with C29U, G31U, C32U
B46: Ic_S4_P4E.1_K4.1_C4.1_H4.1_A4.1_[T5A]_[T7C]_F4.1_[T8G]_[A9T]_T4.1 (ssRNA)
RNA: B1 RNA with C29A, C32U
B47: Ic_S4_P4E.1_K4.1_C4.1_H4.1_A4.1_[T5A]_[A6T]_[T7G]_F4.1_[T8C]_[A9T]_T4.1 (ssRNA)
RNA: B1 RNA with C29U, C30G, G31C, C32U

Molecular target: T1, PUF4 RNA-binding domain
Assay: Mg; RNA-MaP; 20 mM Na-HEPES pH 7.4, 30 mM KOAc, 0.75 mM MgCl2, 0.1% Tween-20, 5% glycerol, 0.1 mg/mL BSA, 2 mM DTT; 25 C; 0.0125-409.6 nM protein
Details: tags: N-His6-TEV cleaved; C-SNAP kept, Cy3B-labelled; label: tethered on chip by stalled RNA polymerase

Row | Binder | Kd [nM]
1 | UCUCUUUGUAUCUAAUCUCUU (ssRNA) [Ib_S1_P4E.1_K4.1_C4.1_H4.1_A4.1_[A6C]_F4.1_[T8A]_T4.1] | 49.3
2 | UCUCUUUGUAUUUAAUCUCUU (ssRNA) [Ic_S1_P4E.1_K4.1_C4.1_H4.1_A4.1_[A6T]_F4.1_[T8A]_T4.1] | 66.5
3 | UCUCUUUGUAUCUCAUCUCUU (ssRNA) [Ib_S1_P4E.1_K4.1_C4.1_H4.1_A4.1_[A6C]_F4.1_[T8C]_T4.1] | 34.6
4 | UCUCUUUGUAUAUGUCUCUU (ssRNA) [Ia_S1_P3E.1_K3.1_C3.1_H3.1_A3.1_F3.1_[A8G]_T3.1] | 17
5 | UCUCUUUGUCUAUUAUCUCUU (ssRNA) [Ia_S1_P4E.1_K4.1_C4.1_H4.1_[A4C]_A4.1_F4.1_T4.1] | 12.7
6 | UCUCUUUGUAUGUAAUCUCUU (ssRNA) [Ib_S1_P4E.1_K4.1_C4.1_H4.1_A4.1_[A6G]_F4.1_[T8A]_T4.1] | 94.6
7 | B1 | 927
8 | B2 | 604
9 | B3 | 421
10 | B4 | 1050
11 | B5 | 281
12 | B6 | 64.3
13 | B7 | 577
14 | B8 | 84.8
15 | B9 | 1.95
16 | B10 | 95.2
17 | B11 | 116
18 | B12 | 205
19 | B13 | 3.93
20 | B14 | 879
21 | B15 | 5.74
22 | B16 | 144
23 | B17 | 1.34
24 | B18 | 31.1
25 | B19 | 653
26 | B20 | 314
27 | B21 | 49.4

Row | Binder | Kd [nM]
28 | B22 | 46.2
29 | B23 | 22.5
30 | B24 | 225
31 | B25 | 467
32 | B26 | 1080
33 | B27 | 175
34 | B28 | 2.38
35 | B29 | 215
36 | B30 | 211
37 | B31 | 56.2
38 | B32 | 1050
39 | B33 | 76.1
40 | B34 | 21.6
41 | B35 | 287
42 | B36 | 44.1
43 | B37 | 455
44 | B38 | 555
45 | B39 | 41.6
46 | B40 | 464
47 | B41 | 72
48 | B42 | 942
49 | B43 | 1200
50 | B44 | 1920
51 | B45 | 34.8
52 | B46 | 506
53 | B47 | 518
54 | UCUCUUUGUAUUUCAUCUCUU (ssRNA) [Ib_S1_P4E.1_K4.1_C4.1_H4.1_A4.1_[A6T]_F4.1_[T8C]_T4.1] | 69.6
